# Measured values as given in the DeepSol protein solubility set.
# Test: soluble on expression in E. coli; label from the status in PepcDB or PDB records
row,Sequence,soluble on expression in E. coli
1,MSSLMCHGGGLPEVRVARPSGRAERIAALGELCRAGSIVHIGEAARQIGASEITIRRDLSVGAGGLVCLGGYVMRASEGAEGYSLTAAEASEAGAKEALAVRAAALIEPGDTVFLDCGTTTPYLAARVPQNARVTVVTQALNIAETVARLTGVNLILLAGIYHPETASFSSEEAVAMLGRINITKGFFSAAGVHETEGVTCFHFHEVPVKRAALARSRQPYLVCDGSKWGRLRPATYARLEEFEGWIGAPDRAALEHHHHHH,not soluble
2,MSSNQYIQSLELTNFTVLPNDTFEFSENLNVIVAENGCGKTHLLKILYSLLEVTSNTKNRLLKTELQKSFADKLLNVFRPDSLGRLSKRLQGRGRTEIVLKLQNGTTHSSLNFSSNSSSQVNVQSIGLKENEYTPTPIFLPSRELITLCPWFTSLYQNQSIPFEETWFDTCMQLNHPLAKGPRETKIRELLEPIENAMGGKVSEEQGRFYLSLTNTGGKIEAPLVAEGLRKFVMIARLIATGALLDKGYLFWDEPEANLNPKLIKVAARIIWSLSQQGIQVFIATHSLFLLRELELLKLENNTDLPVRFFSLIASDDGTKVEQGNSINDLNTLILLDENIMQADRYLNI,not soluble
3,MSSQPRFIHLRTHTDFSMIDSIVKVKPLVKACAANEMVAMGLTDFTNFCGVVSFYSEMLSSGMKPIIGADVKVKSPLCGDEYFDLTLLAKNNEGYRNITLLLSKAYQRGYNDLPYIDQDWLIEHRDGVIILSGGTQGDVGKKLLKENVAEIESAVAFYQEFFADHFYLALSRTGRPNEERYIQAALKLAERCDLPLVATNDVMFLNTEDFEAHEIRVAIHDGYTLDDPKRPKCYTSQQYFRSEEDMCKLFADIPSALENTLLIAQRCSVTLRLGQYFLPQFPTGDLSTEDFLVQKSKEGLEERLVFLFPDEKVRLEKRPKYDERLQVELDVINQMGFPGYFLIVMEFIQWSKDNDIPVGPGRGSGAGSLVAYALKITDLDPLEFDLLFERFLNPERVSMPDFDVDFCMDGRDRVIEHVAETYGRGAVSQIITFGTMAAKAVIRDVGRVLGHPYGFVDRISKLIPPDPGMTLAKAFETEPQLQTAYDSDEEVRALINMARKLEGVTRNAGKHAGGVVISPTLITDFAPLYCDNEGLHPVTHFDKNDVEYAGLVKFDFLGLRTLTIIKWALDIINVRMVREGKPRVDIAAIPLDDPESFELLKRSETTAVFQLESRGMKDLIKRLQPDCFEDIIALVALFRPGPLQSGMVDNFIDRKHGREEVSYPDAEYQHASLKPILEPTYGIILYQEQVMQIAQVLAGYTLGGADLLRRAMGKKKPEEMAKQRLVFKEGAEKNGIDGELSMKIFDLVEKFAGYGFNKSHSAAYALVSYQTLWLKTHFPAEFMAAVMTSEMDNTDKIVGLYDECLRMGLKVTPPDINIGKHHFSVNEQGEIVYGIGAIKGVGEGPIEALVAARNEGGIFKDLFDLCARVDLKKINRRTFESLIMSGAFDKLGPHRAALSKNLEDALRASDQHAKDEAMGQTDMFGVLTETHEDVENAYANTPPYTEKQILDGERETLGLYLSSHPVSRYLKELSHYTSTRLKDLAPNRRGQISTVAGLVVASRIAMTKKGNRLGIATLDDRSGRLDLTLFGESLEQFGEKLQKDTVIVASGQVSFDDFSGGLKMTVRELMTLDEARSRYVKSLAISLSEHQITPSFIKQFKALLEPVSGGTLPINVYYQSPKGRALLRLGVQWSIIPTDEILTELVNLLGESAVELEFE,not soluble
4,MSSSEGNSDASAPGTPVKSSTPSSRGSSPDSPKKQEPSKKRAILNESDDDDDSRPAPRQLSDSSDDNIHPRGGGEKSSPGAGGGLFGDLSGSSDDDSDREGKPKESNTRARLSDSDAESRGSLNDLQGIVMANPDEIDEDEKAKEHVHDTEMVTGRVTLEYAADPPHFVRMPNFLSVATHPFDPQHYEEDEDDEQAKLDDEGRTRLKLRVENTLRWRVRKDENGKEIRESNAKIVKWDDGTMSLYLGNEIFEVSLVPLNSNNLPHLYVKQPTLMSAQAVLTHRMTFRPHSTDSQTHRKVTLNMADRSRKNAQVKVMDDVGQNPEITRRENARKEEESLRAHIRRTQMVRNNFKVRGPRYAGQYSDDEDMPTSSRKGKKKEAPIIGASSESEDDHADTTKKSGSDSDSDEEYRKRKQQQKKQIVTSDEESD,not soluble
5,MSSSNWEKLKKKLDSAKSGRVEKKHSNEKKYLKSVKGKNNENENSYIVDKKRMNELKKFAKENDIPESQVLDAYGVDASKLTRKTNLETLGKYIAMDCEMVGVADDMSVLARVSIVNYHGHVVYDTYVRPKEKVTDWRTWVSGVKSFHMRDAPSFEKVQAEVAKILDNRVLVGHAVHNDLKVLLLSHPRRMIRDTSRFSGYRKLAKGRTPGLKKLAEVILGRDIQSGQHSSVQDAQATMELYKKVKKEMDEVAFKGLSKS,soluble
6,MSSTKQKALKKIAKCLELGNSANVNEAAQAIKMAHRLMLKYGLEKDDIEFIKMGKTQSIHLLPANVGSNILKIIRGINTRFGVEAVLLNHKGLKKVEFIGSADRAIFAAFAFDIVYREMNEQTGQFKNSFAGTGTGQLEVTKRVNSFLAGWIEGALEKLPVIAPDEDSANKINDYIDKEFKNIDRETFKQQLKEAMANITADYEKGLKKGRTISVNRPVAGAQAPKLLK,not soluble
7,MSSVPQSKQELELAIHSVFPKLMADYRSIPAQMSRVCSIDGNIQGTQISVCDTVAYLIGWGKLVLKWYELTSQTLPVDFPDTGYKWNQLELLADRFHQEYHQWQYSDLLNEYELTMAKLLTLIASLSVQQLYGIAWYDKWTLGRMIQFNTYSPMKNMRTKVRRFKKDNALKLEHHHHHH,not soluble
8,MSSYDVVIIGGGPAGLFAAYELAGLAKDNVSNYKILLVDKGARASKRTCPLLSPKEKCTFCDPCHIMYGFGGAGTFSSGIINLRPDIGGELHEITRSWDKAQELINYVDDIFVKFGAPKDRVFEPNMEKVREIQRRAAKVGAEFVPIRQRHMGTDKTPLIIENIVNYVEKRGIKIGELTEVIDIEKKGNKFFLKTSRGEIESRIVLVAPGRAGAKWFYEQSKKLGVDTIPGPLDIGVRVETESFVFDELTEAVWDPKVILYSKRYDDKVRTFCVNPRGYIMKEVYDDGTIGVNGETYVDKKSNNTNFAFLTTIKLSDPLEDTIEYGKSIARLMTRLGGGKPILQRLIDFQKGRRSTWERINRSTVKPTLRDVTPGDISMGLPYRVVDNLIDGLERLDSIAPGIFSSNTLLYAPEIKYYSVRAVVDNNMETVVDNLFAAGDGTGLSRGINVAAATGILAARGIAIKLGLDLEHHHHHH,not soluble
9,MSSYQQKQTFTPPPQLQQQQVKQPSQPPPQEIFVPTTKEPCHSKVPQPGNTKIPEPGCTKVPEPGCTKVPEPGCTKVPEPGCTKVPEPGCTKVPEPGYTKVPEPGSIKVPDQGFIKFPEPGAIKVPEQGYTKVPVPGYTKVPEPCPSTVTPGPAQQKTKQK,soluble
10,MSTAAETTGGDIEPWEEVTPDAARRLLVAAVEAFAERGYHATTTRDIAGRAGMSPAALYIHYKTKEELLHRISRIGHTRAVAILRSAAQGEGSAAERLADAVSSFVRWHAGRRTTARVVQYELDALGPEAREEILTLRRQCDAAVRGIIDDGVAAGEFDVPDVKGTTLAVLSLCIDVARWFNVNGPRTPDEVGALYADLVLRMVGAEPSGATAQR,not soluble
11,MSTDLQHIRIGLTNNHPCSYLPERQERVAVALDAELHTEQNYQLLMANGFRRSGDTIYKPHCERCHACQPIRISIPDFVLSRSQKRLLSKAKSLRWEMKTEMDAEWFELYSRYICKRHKNGTMYPPKRDEFSRFAQTTWLTTLFLHIYDESNQLLGVAVTDVMAQCSSAFYTFFEPDYPLSLGTLAVLYQVNYCQQNNEQWLYLGYQIDECPAMNYKTRFQRHQRLVNQRWQGLEHHHHHH,soluble
12,MSTHIQRSALLPYPARALFDLVNDVKRYPEFLPWCSASQVLEESESLMRAELTVAKGSLSQRFTTRNVLVPGASIEMNLENGPFTELHGVWQFKALGEKACKITLDLTFDYAGPLVKATLGPLFTQAANTMVDAFCQRAKQLYG,not soluble
13,MSTIPSEIINWTILNEIISMDDDDSDFSKGLIIQFIDQAQTTFAQMQRQLDGEKNLTELDNLGHFLKGSSAALGLQRIAWVCERIQNLGRKMEHFFPNKTELVNTLSDKSIINGINIDEDDEEIKIQVDDKDENSIYLILIAKALNQSRLEFKLARIELSKYYNTNLH,soluble
14,MSTMSSPIYIQIHNQIKQAIEAGRWAVGDRIPSERELATQFDVSRMTLRQAIQTLVDEGILERRVGAGTFVANQKVQEKMSGVTSFTDLMLAQGKVPSSKTISYHVTSPSLSESEKLALGANEQVLRMERIRYGDDVPICFEVATVPERLVKQFTKDEITSSLYRTLEEKASLVPGKAQQTVSAMSASERIAEYLSVRRGDALLRLRQISYLQTGEPFEYVRTQYVGNRFEFYLEK,not soluble
15,MSTNFEKHFQENVDECTLEQLRDILVNKSGKTVLANRFRALFNLKTVAEEFATKPEEAKKAIEYIAESFVNDKSELLKHEVAYVLGQTKNLDAAPTLRHVMLDQNQEPMVRHEAAEALGALGDKDSLDDLNKAAKEDPHVAVRETCELAINRINWTHGGAKDKENLQQSLYSSIDPAPPLPLEKDATIPELQALLNDPKQPLFQRYRAMFRLRDIGTDEAILALATGFSAESSLFKHEIAYVFGQIGSPAAVPSLIEVLGRKEEAPMVRHEAAEALGAIASPEVVDVLKSYLNDEVDVVRESCIVALDMYDYENSNELEYAPTAN,soluble
16,MSTNIFLHLPTTISTERTILRKTSFADATTLFDIWSDNDVAQFMNIEKFSTILQAEEMIQAIENEPNACRYTIFTMDNSLKAIGSLGINDINKNNQTIEIGYELAKSHWRQGLMFEILTTFLNTTKAHLPYKTITAKVLPENIASIKLLTKLGFELISTGQELDLHSGKICEISNYQLILN,not soluble
17,MSTTRKLILANIHGVDKPGVTAELTAILAKHNAFILDIGQADIHNNLSLGILFQTDESHSGSILKDLLFKSYELDVTVRFEPITEEAYSEWVGMQGRNRYIITVVARKITAEMIAGIARSSAEQGLNIDDIKRLTGRIPLNETDRSPKASVEFSMRGTPTDIEKLQRNFMEMASQLNMDISFQRESMFR,not soluble
18,MSTTTAITSTLQRVTKAPEGRRMLRVEARNSQTPIESKPRWIRTAVKTGPEYQDMKKKVSGASLHTVCQEAGCPNIHECWESREATFLIGGANCSRRCDFCQINSAKPEPLDRDEPRRVAESVREMQLNYSTITGVTRDDLEDEGAWLYAEVVRKIHELNPHTGVENLTPDFSGKPDLLQEVFEARPEVFAHNLETVPRIFKRIRPAFRYERSLDVIRQARDFGLVTKSNLILGMGETVDEIRDALVDLHSAGCDIITITQYLRPGPMYHPIDRWVKPEEFIDHADFARELGFGAVMSGPLVRSSYRAGKLYAEALAARGESLPENLAHLATTADGSTAQEANTLLEKYGPSQDTPVVSSKA,not soluble
19,MSTVVSEGRNDGNNRYSPQDEVEDRLPDVVDNRLTENMRVPSFERLPSPTPRYFGSCKWFNVSKGYGFVIDDITGEDLFVHQSNLNMQGFRSLDEGERVSYYIQERSNGKGREAYAVSGEVEGQGLKGSRIHPLGRKKAVSLRCFRCGKFATHKAKSCPNVKTDAKVCYTCGSEEHVSSICPERRRKHRPEQVAAEEAEAARMAAEKSSPTTSDDDIREKNSNSSDE,not soluble
20,MSTYSSPFSRLLHPFSSPPLRPHQDSTTRQTVFIYSSPPVNSSMATDNVRLERMEIGMQLLLLRMAEKDGEAEKLARAELITEANLGGQGETTQLNPLVPVSKATAEKLSNELDEVGRNRTARWSKSGRTCVVS,not soluble
